According to patent US20260022175A1 (Chugai, published 2026):
Where a chain is given by its changes, count along the chain named.

How the values were obtained:
[1] = target: T1, human FcγRIa extracellular domain with C-terminal His-tag (human, UniProt P12314 16-292); assay: SPR Biacore T200, Ab captured via Fab-lambda, pH 7.4, 25C;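 note: antibodies captured on a streptavidin chip carrying biotinylated anti-Fab-lambda, with each FcγR injected as analyte in phosphate buffer. KD fitted by 1:1 Langmuir or steady-state model depending on receptor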
T1 construct: extracellular domain; also called hFcγR Ia; hFcγRIa
T1 sequence (P12314 16-292): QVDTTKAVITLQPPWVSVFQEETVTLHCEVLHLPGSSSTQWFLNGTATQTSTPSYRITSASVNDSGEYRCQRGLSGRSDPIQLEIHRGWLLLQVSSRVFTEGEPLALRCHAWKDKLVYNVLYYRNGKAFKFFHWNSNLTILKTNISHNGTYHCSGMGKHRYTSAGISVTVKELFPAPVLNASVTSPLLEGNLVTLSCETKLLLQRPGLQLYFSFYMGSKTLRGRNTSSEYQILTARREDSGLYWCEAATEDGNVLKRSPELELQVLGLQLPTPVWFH
Protocol: (§1) The interaction between the generated antibodies and human FcγRs was analyzed by the following method using Biacore T200. 50 mM Na-Phosphate, 150 mM NaCl, 0.05% Tween20 (pH 7.4) was used as the running buffer, and the assay was performed at 25° C. For the sensor chips, Series S SA (GE Healthcare) chips onto which CaptureSelect Human Fab-lambda Kinetics Biotin Conjugate (Thermo Fisher Scientific) was immobilized were used. The antibodies of interest were captured onto these chips and each FcγR diluted in the running buffer was allowed to interact with them. Chips were regenerated with 10 mM Glycine-HCl (pH 1.5) and 25 mM NaOH, and assay was performed by repeatedly capturing antibodies. The dissociation constants KD (mol/L) for FcγRs of each antibody were calculated using Biacore T200 Evaluation Software 2.0, using the 1:1 Langmuir binding model for FcγRIa and FcγRIIIa and the steady state affinity model for FcγRIIa. For FcγRIIb, the binding amount of FcγRIIb per unit amount of antibody was calculated by correcting the binding amount of FcγRIIb obtained from the sensorgram obtained by the measurement with the amount of antibody captured onto the chip surface.

[2] = target: T2, human FcγRIIa R allotype extracellular domain with C-terminal His-tag (human, UniProt P12318 34-217); assay: as above
T2 construct: extracellular domain; also called hFcγR IIa R
T2 sequence (looked up): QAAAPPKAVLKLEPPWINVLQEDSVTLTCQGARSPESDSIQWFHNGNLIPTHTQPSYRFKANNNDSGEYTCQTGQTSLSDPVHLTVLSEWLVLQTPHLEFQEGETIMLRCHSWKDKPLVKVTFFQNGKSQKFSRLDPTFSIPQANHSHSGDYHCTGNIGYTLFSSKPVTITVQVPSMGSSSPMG
Protocol: as §1

[3] = target: T3, human FcγRIIa H allotype extracellular domain with C-terminal His-tag (human, UniProt P12318 34-217); assay: as above
T3 construct: extracellular domain; also called hFcγR IIa H
T3 sequence (looked up): T2 sequence (looked up) with R134H
Protocol: as §1

[4] = target: T4, human FcγRIIIa F allotype extracellular domain with C-terminal His-tag (human, UniProt P08637 17-208); assay: as above
T4 construct: extracellular domain; also called hFcγR IIIa F
T4 sequence (P08637 17-208): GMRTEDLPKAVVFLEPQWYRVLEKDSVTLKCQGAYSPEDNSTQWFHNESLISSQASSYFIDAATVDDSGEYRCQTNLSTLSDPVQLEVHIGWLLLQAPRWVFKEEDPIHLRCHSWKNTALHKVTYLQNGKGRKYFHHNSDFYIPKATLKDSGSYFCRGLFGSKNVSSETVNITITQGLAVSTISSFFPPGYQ
Protocol: as §1

[5] = target: T5, human FcγRIIIa V allotype extracellular domain with C-terminal His-tag (human, UniProt P08637 17-208); assay: as above
T5 construct: extracellular domain; also called hFcγR IIIa V
T5 sequence (P08637 17-208 F176V): as the sequence (P08637 17-208) above, with F160V counted along it
Protocol: as §1

[6] = target: T6, human FcγRIIb extracellular domain with C-terminal His-tag (human, UniProt P31994 43-217); assay: SPR; FcγRIIb at 1000 nM, bound amount per unit captured Ab
T6 construct: extracellular domain; also called hFcγR IIb
T6 sequence (looked up): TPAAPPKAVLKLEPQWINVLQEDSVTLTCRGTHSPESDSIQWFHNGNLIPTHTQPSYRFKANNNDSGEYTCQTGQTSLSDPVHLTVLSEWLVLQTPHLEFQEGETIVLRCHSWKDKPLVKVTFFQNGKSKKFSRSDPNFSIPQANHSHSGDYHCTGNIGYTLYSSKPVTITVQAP

[7] = target: T1, human FcγRIa extracellular domain with …; assay: SPR; KD of 04H1637-G1m/04L1610-lam1 divided by KD of variant;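 note: biacore T200 SPR at 25 °C, antibodies captured on anti-Fab-lambda SA chip with receptor as analyte, running buffer pH 7.4 for FcγRs and pH 6.0 for FcRn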
Protocol: as §1
(§2) The interaction between the generated antibodies and human FcRn was analyzed by the following method using Biacore T200. 50 mM Na-Phosphate, 150 mM NaCl, 0.05% Tween20 (pH 6.0) was used as the running buffer, and the assay was performed at 25° C. For the sensor chip, Series S SA (GE Healthcare) chips onto which CaptureSelect Human Fab-lambda Kinetics Biotin Conjugate (Thermo Fisher Scientific) was immobilized were used. The antibodies of interest were captured onto these chips and FcRn diluted in the running buffer was allowed to interact with them. Chips were regenerated with 10 mM Glycine-HCl (pH 1.5) and 25 mM NaOH, and assay was performed by repeatedly capturing antibodies. The dissociation constant for FcRn of each antibody was calculated using the steady state model, using Biacore T200 Evaluation Software 2.0.

[8] = target: T2, human FcγRIIa R allotype extracellular …; assay: as above
Protocol: as §1, §2

[9] = target: T3, human FcγRIIa H allotype extracellular …; assay: as above
Protocol: as §1, §2

[10] = target: T4, human FcγRIIIa F allotype extracellular …; assay: as above
Protocol: as §1, §2

[11] = target: T5, human FcγRIIIa V allotype extracellular …; assay: as above
Protocol: as §1, §2

[12] = target: T6, human FcγRIIb extracellular domain with …; assay: SPR; binding amount divided by that of 04H1637-G1m/04L1610-lam1
[13] = target: T7, human FcγRIa extracellular domain (human, UniProt P12314 16-292); assay: SPR Biacore 8K+; KD of G1d divided by KD of this antibody;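 note: antibodies captured on an anti-Fab-kappa streptavidin chip, soluble FcγR ectodomains flowed over, KD by steady-state fit for FcγRIIb and Langmuir kinetic model for the other receptors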
T7 construct: extracellular domain; also called hFcγR Ia; hFcγRIa
T7 sequence (P12314 16-292): as the sequence (P12314 16-292) above
Protocol: (§3) The interaction between the produced antibodies and human FcγRs was analyzed using Biacore 8K+ by the method below. For the running buffer, 50 mM Na-Phosphate, 150 mM NaCl, and 0.05% Tween20 (pH 7.4) was used, and measurement was performed at 25° C. The sensor chip used was a Series S SA chip (GE Healthcare) onto which CaptureSelect Human Fab-kappa Kinetics Biotin Conjugate (Thermo Fisher Scientific) was immobilized. An antibody of interest was captured onto this chip, and each FcγR diluted with the running buffer was allowed to interact with it. The chip was regenerated using 10 mM Glycine-HCl (pH 1.5), and repeatedly used to capture antibodies and perform measurement. The dissociation constants KD (mol/L) of each antibody for FcγRs were calculated using Biacore Insight Evaluation Software, with a steady state affinity model for the dissociation constant for FcγRIIb and a 1:1 Langmuir binding model for the dissociation constants for the other FcγRs (Table 48).

[14] = target: T8, human FcγRIIa H extracellular domain (human, UniProt P12318 34-217); assay: as above
T8 construct: extracellular domain; also called hFcγR IIa H
T8 sequence (looked up): T2 sequence (looked up) with R134H
Protocol: as §3

[15] = target: T9, human FcγRIIa R extracellular domain (human, UniProt P12318 34-217); assay: as above
T9 construct: extracellular domain; also called hFcγR IIa R
T9 sequence (looked up): T2 sequence (looked up)
Protocol: as §3

[16] = target: T10, human FcγRIIb extracellular domain (human, UniProt P31994 43-217); assay: as above
T10 construct: extracellular domain; also called hFcγR IIb
T10 sequence (looked up): T6 sequence (looked up)
Protocol: as §3

[17] = target: T11, human FcγRIIIa F extracellular domain (human, UniProt P08637 17-208); assay: as above
T11 construct: extracellular domain; also called hFcγR IIIa F
T11 sequence (P08637 17-208): as the sequence (P08637 17-208) above
Protocol: as §3

[18] = target: T12, human FcγRIIIa V extracellular domain (human, UniProt P08637 17-208); assay: as above
T12 construct: extracellular domain; also called hFcγR IIIa V
T12 sequence (P08637 17-208 F176V limits assumed): as the sequence (P08637 17-208) above, with F160V counted along it
Protocol: as §3

[19] = target: T8, human FcγRIIa H extracellular domain; assay: SPR Biacore 8K+; KD for FcγRIIb divided by KD for this FcγR;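 note: antibodies captured on an anti-human Fab kappa SA chip with soluble human FcγR ectodomains flowed over, FcγRIIb KD from steady-state fit, other FcγR KD from Langmuir model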
[20] = target: T9, human FcγRIIa R extracellular domain; assay: as above
[21] = target: T11, human FcγRIIIa F extracellular domain; assay: as above
[22] = target: T12, human FcγRIIIa V extracellular domain; assay: as above
[23] = target: T7, human FcγRIa extracellular domain; assay: SPR Biacore 8K+, antibody captured, FcγR as analyte, 1:1 Langmuir model;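 note: antibodies captured on a streptavidin chip through a biotinylated anti-human Fab kappa reagent, with FcγR extracellular domains injected in pH 7.4 phosphate buffer at 25 °C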
Protocol: as §3

[24] = target: T8, human FcγRIIa H extracellular domain; assay: as above
Protocol: as §3

[25] = target: T9, human FcγRIIa R extracellular domain; assay: as above
Protocol: as §3

[26] = target: T11, human FcγRIIIa F extracellular domain; assay: as above
Protocol: as §3

[27] = target: T12, human FcγRIIIa V extracellular domain; assay: as above
Protocol: as §3

[28] = target: T10, human FcγRIIb extracellular domain; assay: SPR Biacore 8K+, antibody captured, FcγR as analyte, steady state affinity model
Protocol: as §3

B1: 04H1637-Kn462/04L1610-lam1//04H1637-Hl441/04L1610-lam1 (antibody, human IgG1, lambda)
heavy 1: QVQLVESGGGLVKPGGSLRLSCAASGFTFSSKTMNWVRQAPGKGLEWVSSISTQSHYIYYAESVRGRFTISRDNAKNSLYLQMNSLRAEDTAVYYCARYGKREDMLWVFDYWGQGTLVTVSSASTKGPSVFPLAPSSKSTSGGTAALGCLVKDYFPEPVTVSWNSGALTSGVHTFPAVLQSSGLYSLSSVVTVPSSSLGTQTYICNVNHKPSNTKVDKKVEPKSCDKTHTCPPCPAPEFQWGPMVFLFPPKPKDVLMISRTPEVTCVVVDVSDEEPEVKFNWYVDGVEVHNAKTKPREEQYNATYRVVSVLPVLHQDWLNGKEYKCKVSNDALPAPIEKTISKAKGQPREPQVCTLPPSRDELTKNQVSLWCLVKGFYPSDIAVEWESNGQPENNYKTTPPVLDSDGSFFLYSKLTVDKSRWQQGNVFSCSVMHEALHNHYTQKSLSLSP
heavy 2: QVQLVESGGGLVKPGGSLRLSCAASGFTFSSKTMNWVRQAPGKGLEWVSSISTQSHYIYYAESVRGRFTISRDNAKNSLYLQMNSLRAEDTAVYYCARYGKREDMLWVFDYWGQGTLVTVSSASTKGPSVFPLAPSSKSTSGGTAALGCLVKDYFPEPVTVSWNSGALTSGVHTFPAVLQSSGLYSLSSVVTVPSSSLGTQTYICNVNHKPSNTKVDKKVEPKSCDKTHTCPPCPAPELLAGPSVFLFPPKPKDVLMISRTPEVTCVVVDVSHEEPEVKFNWYVDGVEVHNAKTKPREEQYNATYRVVSVLPVLHQDWLNGKEYKCKVSNDALPAPIEETISKAKGQPREPQVYTLPPSRCELTKNQVSLSCAVKGFYPSDIAVEWESNGQPENNYKTTPPVLDSDGSFFLVSKLTVDKSRWQQGNVFSCSVMHEALHNHYTQKSLSLSP
light: QSALTQPPSASGSPGQSVTISCEGPSTGVGDYNWVHWYQQHPGKAPKLMIYFTSKKPSGVPDRFSGSKSGNTASLTVSGLQAEDEADYYCQTYAAPLGPMFGGGTKLTVLGQPKAAPSVTLFPPSSEELQANKATLVCLISDFYPGAVTVAWKADSSPVKAGVETTTPSKQSNNKYAASSYLSLTPEQWKSHRSYSCQVTHEGSTVEKTVAPTECS
notes: Heterodimerized antibody; also called 04H1637-Kn462/04L1610-lam1//04H1637-H1441/04L1610-lam1
Kd [1]: 0.15 nM
Kd [2]: 220 nM
Kd [3]: 70 nM
Kd [4]: 17 nM
Kd [5]: 5.2 nM
Binding amount [6]: 0.013
Relative value to KD between G1m and hFcγRs [7]: 0.3
Relative value to KD between G1m and hFcγRs [8]: 9.2
Relative value to KD between G1m and hFcγRs [9]: 20.9
Relative value to KD between G1m and hFcγRs [10]: 79.5
Relative value to KD between G1m and hFcγRs [11]: 45.8
Relative binding amount [12]: 1.6

B2: H240-Kn032/L73-k0//H240-Hl032/L73-k0 (antibody)
heavy 1: QDQLVQSGAEVKKPGASVKVSCKASGFNIKDTYIQWVRQAPGQGLEWMGRIDPLRKQTKYREKFEGRVTITADTSTNTAYMELSSLRSEDTAVYYCVRSGREFDYWGQGTLVTVSSASTKGPSVFPLAPSSKSTSGGTAALGCLVKDYFPEPVTVSWNSGALTSGVHTFPAVLQSSGLYSLSSVVTVPSSSLGTQTYICNVNHKPSNTKVDKKVEPKSCDKTHTCPPCPAPELLGGPDVFLFPPKPKDTLMISRTPEVTCVVVDVSHEDPEVKFNWYVDGVEVHNAKTKPREEQYNSTYRVVSVLTVLHQDWLNGKEYKCKVSNKALPLPEEKTISKAKGQPREPQVCTLPPSRDELTKNQVSLWCLVKGFYPSDIAVEWESNGQPENNYKTTPPVLDSDGSFFLYSKLTVDKSRWQQGNVFSCSVMHEALHNHYTQKSLSLSP
heavy 2: B2 heavy 1 with C348Y, D355C, W365S, L367A, Y406V
light: DIQMTQSPSSLSASVGDRVTITCRASQDIHKYIAWYQQKPGQAPRLLIQYTSTLQPGVPSRFSGSGSGTDYTFTISSLQPEDIATYYCLQYEQLRTFGGGTKVEIKRTVAAPSVFIFPPSDEQLKSGTASVVCLLNNFYPREAKVQWKVDNALQSGNSQESVTEQDSKDSTYSLSSTLTLSKADYEKHKVYACEVTHQGLSSPVTKSFNRGEC
notes: also called EGL-SDALIE; SDALIE
Relative value to KD between G1d and hFcgRs [13]: 54.3
Relative value to KD between G1d and hFcgRs [14]: 1
Relative value to KD between G1d and hFcgRs [15]: 1.8
Relative value to KD between G1d and hFcgRs [16]: 3.9
Relative value to KD between G1d and hFcgRs [17]: 113
Relative value to KD between G1d and hFcgRs [18]: 36.8
A/I ratio (KD for FcγRIIb divided by KD for each FcγR) [19]: 2.2
A/I ratio (KD for FcγRIIb divided by KD for each FcγR) [20]: 2.8
A/I ratio (KD for FcγRIIb divided by KD for each FcγR) [21]: 98.7
A/I ratio (KD for FcγRIIb divided by KD for each FcγR) [22]: 266
Kd [23]: 0.00166 nM
Kd [24]: 1180 nM
Kd [25]: 935 nM
Kd [26]: 26.2 nM
Kd [27]: 9.73 nM
Kd [28]: 2590 nM
